B1: Microsomal triglyceride transfer protein large subunit (Homo sapiens), P55157 (parent)
chain: MILLAVLFLCFISSYSASVKGHTTGLSLNNDRLYKLTYSTEVLLDRGKGKLQDSVGYRISSNVDVALLWRNPDGDDDQLIQITMKDVNVENVNQQRGEKSIFKGKSPSKIMGKENLEALQRPTLLHLIHGKVKEFYSYQNEAVAIENIKRGLASLFQTQLSSGTTNEVDISGNCKVTYQAHQDKVIKIKALDSCKIARSGFTTPNQVLGVSSKATSVTTYKIEDSFVIAVLAEETHNFGLNFLQTIKGKIVSKQKLELKTTEAGPRLMSGKQAAAIIKAVDSKYTAIPIVGQVFQSHCKGCPSLSELWRSTRKYLQPDNLSKAEAVRNFLAFIQHLRTAKKEEILQILKMENKEVLPQLVDAVTSAQTSDSLEAILDFLDFKSDSSIILQERFLYACGFASHPNEELLRALISKFKGSIGSSDIRETVMIITGTLVRKLCQNEGCKLKAVVEAKKLILGGLEKAEKKEDTRMYLLALKNALLPEGIPSLLKYAEAGEGPISHLATTALQRYDLPFITDEVKKTLNRIYHQNRKVHEKTVRTAAAAIILNNNPSYMDVKNILLSIGELPQEMNKYMLAIVQDILRFEMPASKIVRRVLKEMVAHNYDRFSRSGSSSAYTGYIERSPRSASTYSLDILYSGSGILRRSNLNIFQYIGKAGLHGSQVVIEAQGLEALIAATPDEGEENLDSYAGMSAILFDVQLRPVTFFNGYSDLMSKMLSASGDPISVVKGLILLIDHSQELQLQSGLKANIEVQGGLAIDISGAMEFSLWYRESKTRVKNRVTVVITTDITVDSSFVKAGLETSTETEAGLEFISTVQFSQYPFLVCMQMDKDEAPFRQFEKKYERLSTGRGYVSQKRKESVLAGCEFPLHQENSEMCKVVFAPQPDSTSSGWF
B2: Microsomal triglyceride transfer protein large subunit (Homo sapiens), P55157 (parent)
chain: B1 chain
partner: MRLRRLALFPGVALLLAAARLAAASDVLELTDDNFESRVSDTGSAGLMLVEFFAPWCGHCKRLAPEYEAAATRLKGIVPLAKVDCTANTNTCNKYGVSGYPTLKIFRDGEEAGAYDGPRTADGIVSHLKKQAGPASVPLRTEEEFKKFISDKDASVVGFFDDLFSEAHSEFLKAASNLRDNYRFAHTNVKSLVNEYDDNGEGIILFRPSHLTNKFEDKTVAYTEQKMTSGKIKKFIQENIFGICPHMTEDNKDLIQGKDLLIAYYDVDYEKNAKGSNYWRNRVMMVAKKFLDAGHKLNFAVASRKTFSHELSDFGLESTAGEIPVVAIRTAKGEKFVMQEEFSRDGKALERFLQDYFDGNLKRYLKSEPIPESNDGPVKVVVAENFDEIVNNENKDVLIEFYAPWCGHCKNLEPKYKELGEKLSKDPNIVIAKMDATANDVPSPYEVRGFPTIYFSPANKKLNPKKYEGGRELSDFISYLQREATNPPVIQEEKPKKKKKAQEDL

Variants of: B1
Settings: with apob_human APOB

| Variant | effect of a mutation on the interaction |
| --- | --- |
| K189R | with no effect |
| K189L | with no effect |
| K187R | with no effect |
| K187L | with no effect |
| D169V | with no effect |
| D169E | with no effect |

Variants of: B2
Settings: with pdia3_chlae PDIA3, Q4VIT4

| Variant | effect of a mutation on the interaction |
| --- | --- |
| K187R | with no effect |
| K187L | decreasing interaction strength |
| D169V | disrupting interaction strength |
| D169E | with no effect |
| K189R | with no effect |
| K189L | decreasing interaction strength |

Variants of: B2
Settings: with pdia3_chlae PDIA3, Q4VIT4
Remark: another data set of the same source

| Variant | effect of a mutation on the interaction |
| --- | --- |
| K187L | with no effect |
| D169V | with no effect |
| K189L | with no effect |

— IntAct's records for PubMed 26224785
